The text below walks through data of patent US20240239894A1, “THERAPEUTIC BINDING MOLECULES” (MedImmune Limited, priority 2020, published 2024).

Data set [1] deals with HT29. As to the kind of experiment: E02-GL MESF on cell line. In kind it is cell-based, human. Conditions: HT29, B7-H4 negative.
For data set [2], the system named is MDA-MB-468. As to the kind of experiment: E02-GL MESF on cell line. In kind it is cell-based, human. The procedure: A number of cancer cell lines were treated with clone E02-GL-SG3249 (e.g. conjugated to a cytotoxin), as outlined in Table 15.
The target of data set [3] is T1, immobilized recombinant human B7-H4 (Homo sapiens, UniProt Q7Z7D3).
T1 sequence (Q7Z7D3 25-282): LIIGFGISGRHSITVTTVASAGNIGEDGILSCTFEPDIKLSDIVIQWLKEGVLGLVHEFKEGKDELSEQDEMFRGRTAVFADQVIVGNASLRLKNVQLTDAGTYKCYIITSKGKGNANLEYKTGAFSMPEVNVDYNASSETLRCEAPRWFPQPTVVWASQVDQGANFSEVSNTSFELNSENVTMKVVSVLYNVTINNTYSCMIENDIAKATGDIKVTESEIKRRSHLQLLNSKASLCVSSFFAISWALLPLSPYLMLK
As to the kind of experiment: DELFIA-ELISA. It is filed as binding. The procedure:
To assess whether conjugation of the topoisomerase 1 linker-warhead affected binding properties of the E02-INT antibody, the binding affinity of E02-INT and E02-GL-SG3932 were measured using a DELFIA-ELISA method and an SPR method. […] The kinetic rate constants (kon and koff) and equilibrium dissociation constants (KD) of E02-INT and E02-GL-SG3932 for human B7-H4 antigen was also determined by SPR, using an antibody capture method.

Data set [4] deals with B7-H4-negative non-transduced HT29. Put plainly: Flow cytometry binding. It is filed as cell-based, human.
For data set [5], the system named is MX-1 breast cancer xenograft. As to the kind of experiment: Xenograft efficacy. It is filed as in vivo, CB-17 SCID mice. Conditions: 10 mg/kg. The protocol:
The antitumor activity of antibody intermediate E02-INT and E02-GL-SG3932 was investigated in human tumor xenograft mouse models using immunodeficient CB-17 SCID mice.
The effect of E02-GL-SG3932, the isotype-matched control ADC NIP228-SG3932, and E02-INT, the antibody intermediate of E02-GL-SG3932 was evaluated in the MX-1 breast cancer xenograft model. Animals were injected SC with MX-1 cells and after tumors grew in volume to a mean of 270 mm3, animals were randomized and each mouse received an IV injection of test or control articles.

For data set [6], the system named is non-transfected HEK293 cells. Put plainly: In vitro cytotoxicity. In kind it is cell-based. From the text:
The clone E02-GL was conjugated to the cytotoxin SG3249 (providing E02-GL-SG3249), and tested for the ability to target and kill both cynomolgus B7-H4 transfected and non-transfected B7-H4 cells. For convenience, the antibody tested in this example comprised the Maia heavy chain backbone (e.g. having a cysteine insertion providing an additional site to which SG3249 can conjugate, see SEQ ID NO: 48) was used. No loss of efficacy occurs where other heavy chain backbones (e.g. lacking such cysteine insertion, for example see SEQ ID NO: 52) is used. The antibody R347 conjugated to SG3249 was used as a control.

The test system of data set [7] is B7-H4 heterogeneous HT29 tumours (1:1 expressing and non-expressing). Put plainly: Bystander killing in vivo. From the text:
B7-H4 heterogeneous tumours were generated by co-implantation of B7-H4 expressing HT29 cell lines with non-expressing HT29 cells (1:1 ratio). […] This is highly advantageous, as the inventors have found B7-H4 to be heterogeneously expressed within tumours.

The subject of data set [8] is HT29 cell line expressing human B7-H4, SKBR3, HCC1569. As to the kind of experiment: Cytotoxicity assay versus 1D11 ADC. It is filed as cell-based. Conditions: six days. The protocol:
Cell lines were detached from tissue culture flasks by accutase (Gibco, Paisley, UK), pelleted by centrifugation, and resuspended in growth media (McCoy's 5A,10% FBS, 400 μg/mL G418 for HT29-hB7H4 clone 44, McCoy's 5A, 10% FBS for SKBR3 and RPMI-1640, 10% FBS for HCC1569). Viable cells were counted by trypan blue exclusion using a haemocytometer. Cell densities were adjusted to 2.7×10^4 cells/mL in growth media. 75 μL/well of the cell suspension (2×10^3 cells) was added to 96-well white walled clear bottom tissue culture treated plates and cultured overnight in a humidified tissue culture incubator at 37° C. in 5% CO2. […]
Cells were cultured in the presence of ADCs or DPBS (mock-treated control cells) for six days. Cell viability was assessed using CellTiter-Glo® assay: 100 μL of CellTiter-Glo® (Promega, Southampton, UK) was added to each well. […] Luminescence was measured using an Envision multilabel plate reader (Perkin Elmer, Seer Green, UK). The potency for test article antibodies (e.g. 1D11-MMAE or E02-GL-MMAE or E02-GL-SG3249) was determined by generating half-maximal inhibitory concentration (IC50) values using a nonlinear regression model [log agonist vs. response—variable slope (three parameters)] in GraphPad Prism, version 7 (GraphPad Software, La Jolla, CA) and presented as percent cell viability relative to Mock-treated control cells — […]

B1: E02-GL: germlined ZY0EQD-E02, VH SEQ ID NO: 45, VL SEQ ID NO: 34; antibody intermediate of E02-GL-SG3932 (antibody, V domains shown)
VH: QVQLQQWGAGLLKPSETLSLACTVYGGSFSGYYWNWIRQPPGKGLEWIGEINHSGSTSYNPSLKSRVTISVDTSKNQFSLKLSSVTAADTAVYYCARVLYNWNVDSWGQGTLVTVSS
VL: DIQMTQSPSSLSASVGDRVTITCRASQDIRNDVGWYQQKPGKAPKRLIYAASRLQSGVPSRFSGSGSGTEFTLTISSLQPEDFATYYCLQHNSYPRTFGQGTKVEIK
In general, EC50 refers to the concentration needed to bring the measured effect to its halfway point. For B1, the “E02-GL MESF” value is given as 2,101 MESF in data set [1] and 92,157 MESF in data set [2]. The EC50 in data set [3] worked out at 1.98 nM. Also, the cellular binding entry in data set [4] is “did not bind”. The TGI in data set [5] is on record as −1%.

B2: E02-GL-SG3249: clone E02-GL (Maia heavy chain backbone) conjugated to the PBD cytotoxin SG3249 (conjugate)
heavy: QVQLQQWGAGLLKPSETLSLACTVYGGSFSGYYWNWIRQPPGKGLEWIGEINHSGSTSYNPSLKSRVTISVDTSKNQFSLKLSSVTAADTAVYYCARVLYNWNVDSWGQGTLVTVSSASTKGPSVFPLAPSSKSTSGGTAALGCLVKDYFPEPVTVSWNSGALTSGVHTFPAVLQSSGLYSLSSVVTVPSSSLGTQTYICNVNHKPSNTKVDKRVEPKSCDKTHTCPPCPAPELLGGPSCVFLFPPKPKDTLMISRTPEVTCVVVDVSHEDPEVKFNWYVDGVEVHNAKTKPREEQYNSTYRVVSVLTVLHQDWLNGKEYKCKVSNKALPAPIEKTISKAKGQPREPQVYTLPPSREEMTKNQVSLTCLVKGFYPSDIAVEWESNGQPENNYKTTPPVLDSDGSFFLYSKLTVDKSRWQQGNVFSCSVMHEALHNHYTQKSLSLSPGK
light: DIQMTQSPSSLSASVGDRVTITCRASQDIRNDVGWYQQKPGKAPKRLIYAASRLQSGVPSRFSGSGSGTEFTLTISSLQPEDFATYYCLQHNSYPRTFGQGTKVEIKRTVAAPSVFIFPPSDEQLKSGTASVVCLLNNFYPREAKVQWKVDNALQSGNSQESVTEQDSKDSTYSLSSTLTLSKADYEKHKVYACEVTHQGLSSPVTKSFNRGEC
Consider B2, for which, in data set [6], the cell killing entry is listed as “No significant killing”. Besides, in data set [7], the “growth suppression of heterogeneous xenografts” value is recorded as “pronounced”. In addition, the “cytotoxicity potency compared with 1D11 conjugated to (A114C-) MMAE” value in data set [8] was “superior cytotoxicity potency”.
